Data from IntAct's records for PubMed 18256688.

B1: Regulator of nonsense transcripts 1 (Homo sapiens), Q92900 (parent)
chain: MSVEAYGPSSQTLTFLDTEEAELLGADTQGSEFEFTDFTLPSQTQTPPGGPGGPGGGGAGGPGGAGAGAAAGQLDAQVGPEGILQNGAVDDSVAKTSQLLAELNFEEDEEDTYYTKDLPIHACSYCGIHDPACVVYCNTSKKWFCNGRGNTSGSHIVNHLVRAKCKEVTLHKDGPLGETVLECYNCGCRNVFLLGFIPAKADSVVVLLCRQPCASQSSLKDINWDSSQWQPLIQDRCFLSWLVKIPSEQEQLRARQITAQQINKLEELWKENPSATLEDLEKPGVDEEPQHVLLRYEDAYQYQNIFGPLVKLEADYDKKLKESQTQDNITVRWDLGLNKKRIAYFTLPKTDSGNEDLVIIWLRDMRLMQGDEICLRYKGDLAPLWKGIGHVIKVPDNYGDEIAIELRSSVGAPVEVTHNFQVDFVWKSTSFDRMQSALKTFAVDETSVSGYIYHKLLGHEVEDVIIKCQLPKRFTAQGLPDLNHSQVYAVKTVLQRPLSLIQGPPGTGKTVTSATIVYHLARQGNGPVLVCAPSNIAVDQLTEKIHQTGLKVVRLCAKSREAIDSPVSFLALHNQIRNMDSMPELQKLQQLKDETGELSSADEKRYRALKRTAERELLMNADVICCTCVGAGDPRLAKMQFRSILIDESTQATEPECMVPVVLGAKQLILVGDHCQLGPVVMCKKAAKAGLSQSLFERLVVLGIRPIRLQVQYRMHPALSAFPSNIFYEGSLQNGVTAADRVKKGFDFQWPQPDKPMFFYVTQGQEEIASSGTSYLNRTEAANVEKITTKLLKAGAKPDQIGIITPYEGQRSYLVQYMQFSGSLHTKLYQEVEIASVDAFQGREKDFIILSCVRANEHQGIGFLNDPRRLNVALTRARYGVIIVGNPKALSKQPLWNHLLNYYKEQKVLVEGPLNNLRESLMQFSKPRKLVNTINPGARFMTTAMYDAREAIIPGSVYDRSSQGRPSSMYFQTHDQIGMISAGPSHVAAMNIPIPFNLVMPPMPPPGYFGQANGPAAGRGTPKGKTGRGGRQKNRFGLPGPSQTNLPNSQASQDVASQPFSQGALTQGYISMSQPSQMSQPGLSQPELSQDSYLGDEFKSQIDVALSQDSTYQGERAYQHGGVTGLSQY

Variants of: B1
Conditions: with rent2_human UPF2, Q9HAU5
Sequence of rent2_human UPF2, Q9HAU5 (Q9HAU5 whole entry): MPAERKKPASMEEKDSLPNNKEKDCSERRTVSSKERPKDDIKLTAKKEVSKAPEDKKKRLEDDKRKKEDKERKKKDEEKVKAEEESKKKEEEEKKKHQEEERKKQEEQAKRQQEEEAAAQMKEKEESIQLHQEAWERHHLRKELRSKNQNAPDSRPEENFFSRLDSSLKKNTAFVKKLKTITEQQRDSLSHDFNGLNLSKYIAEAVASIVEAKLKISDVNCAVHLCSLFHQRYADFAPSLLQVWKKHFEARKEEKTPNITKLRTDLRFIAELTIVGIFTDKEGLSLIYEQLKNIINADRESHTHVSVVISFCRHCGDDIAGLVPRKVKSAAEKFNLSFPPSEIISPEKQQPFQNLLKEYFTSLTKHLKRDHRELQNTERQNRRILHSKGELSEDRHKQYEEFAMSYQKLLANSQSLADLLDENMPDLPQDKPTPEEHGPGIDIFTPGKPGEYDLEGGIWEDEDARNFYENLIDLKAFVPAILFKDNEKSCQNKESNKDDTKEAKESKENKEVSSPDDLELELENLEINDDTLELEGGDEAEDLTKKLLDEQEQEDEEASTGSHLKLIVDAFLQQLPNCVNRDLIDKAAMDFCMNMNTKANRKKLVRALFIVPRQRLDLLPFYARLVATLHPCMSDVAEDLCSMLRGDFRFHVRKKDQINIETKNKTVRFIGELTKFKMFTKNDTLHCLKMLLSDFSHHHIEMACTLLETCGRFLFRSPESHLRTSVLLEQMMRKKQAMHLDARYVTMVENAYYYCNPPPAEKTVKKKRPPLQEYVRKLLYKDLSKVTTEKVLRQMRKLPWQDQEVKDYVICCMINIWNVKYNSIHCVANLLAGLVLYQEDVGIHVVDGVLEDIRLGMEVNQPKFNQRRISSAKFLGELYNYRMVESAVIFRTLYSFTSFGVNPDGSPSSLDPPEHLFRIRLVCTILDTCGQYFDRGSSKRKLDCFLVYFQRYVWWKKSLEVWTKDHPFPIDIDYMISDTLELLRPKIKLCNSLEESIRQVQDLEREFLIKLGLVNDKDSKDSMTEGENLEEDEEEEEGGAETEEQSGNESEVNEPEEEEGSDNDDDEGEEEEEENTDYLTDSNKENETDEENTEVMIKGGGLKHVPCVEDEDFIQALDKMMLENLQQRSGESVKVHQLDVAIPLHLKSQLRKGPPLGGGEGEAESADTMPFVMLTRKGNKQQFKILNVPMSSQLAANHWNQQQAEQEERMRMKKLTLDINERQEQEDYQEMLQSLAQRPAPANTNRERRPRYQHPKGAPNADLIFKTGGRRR

Row | Variant | effect of a mutation on the interaction
1 | L181V | disrupting interaction
2 | E182R | disrupting interaction
3 | C183V | disrupting interaction
4 | Y184D | disrupting interaction

Variants of: B1
Conditions: with rent2_human UPF2, Q9HAU5
Remark: another data set of the same source

Row | Variant | effect of a mutation on the interaction
5 | C126S | disrupting interaction

Variants of: B1
Conditions: with rent2_human UPF2, Q9HAU5
Remark: another data set of the same source

Row | Variant | effect of a mutation on the interaction
6 | V204D | disrupting interaction
7 | V205I | disrupting interaction
